From paper PMC3740164 (Developmental cell, 2013)

Biological target: full-length His6-PIPKIγi5 (human, UniProt O60331-3 1-707)
Assay: pull-down

B1: GST-SNX5 (natural protein, UniProt Q9Y5X3 1-404, looked up)
chain: MAAVPELLQQQEEDRSKLRSVSVDLNVDPSLQIDIPDALSERDKVKFTVHTKTTLPTFQSPEFSVTRQHEDFVWLHDTLIETTDYAGLIIPPAPTKPDFDGPREKMQKLGEGEGSMTKEEFAKMKQELEAEYLAVFKKTVSSHEVFLQRLSSHPVLSKDRNFHVFLEYDQDLSVRRKNTKEMFGGFFKSVVKSADEVLFTGVKEVDDFFEQEKNFLINYYNRIKDSCVKADKMTRSHKNVADDYIHTAACLHSLALEEPTVIKKYLLKVAELFEKLRKVEGRVSSDEDLKLTELLRYYMLNIEAAKDLLYRRTKALIDYENSNKALDKARLKSKDVKLAEAHQQECCQKFEQLSESAKEELINFKRKRVAAFRKNLIEMSELEIKHARNNVSLLQSCIDLFKNN
binding result: binds
